Values of other authors in patent US6200966A, “Compositions for inhibiting airway wall inflammation” (Amrad Operations Pty. Ltd., priority 1996, dated 2001).

System: cultured airway smooth muscle
Conditions: various species

B1: PDGFBB: platelet-derived growth factor (protein, UniProt P01127 82-190, looked up)
Platelet-derived growth …: SLGSLTIAEPAMIAECKTRTEVFEISRRLIDRTNANFLVWPPCVEVQRCSGCCNNRNVQCRPTQVQLRPVQVRKIEIVRKKPIFKKATVTLEDHLACKCETVAAARPVT
mitogenic activity on airway smooth muscle: most effective proliferative agents
